Results: the DeepSol protein solubility set

Experiment: soluble on expression in E. coli; label from the status in PepcDB or PDB records

Sequence | soluble on expression in E. coli
MSLAPANGLRIYALGGISEIGRNMTVFEYNNRLLIVDCGVLFPSSGEPGVDLILPDFGPIEDHLHRVDALVVTHGHEDHIGAIPWLLKLRNDIPILASRFTLALIAAKCKEHRQRPKLIEVNEQSNEDRGPFNIRFWAVNHSIPDCLGLAIKTPAGLVIHTGDIKLDQTPPDGRPTDLPALSRFGDEGVDLMLCDSTNATTPGVSGSEADVAPTLKRLVGDAKQRVILASFASNVYRVQAAVDAAVASNRKVAFNGRSMIRNMEIAEKLGYLKAPRGTIISMDDASRMAPHKVMLITTGTQGEPMAALSRMARREHRQITVRDGDLIILSSSLVPGNEEAVFGVINMLAQIGATVVTGRDAKVHTSGHGYSGELLFLYNAARPKNAMPVHGEWRHLRANKELAISTGVNRDNVVLAQNGVVVDMVNEGHHHHHH | soluble
MSLAQAMKIAIVDDEQDMRQSISQWLALSGYDTETFASAEEALKVLGSEYPGIVISDIKMPGMDGMQFLKKLMGADSSLPVIMITGHGDVPMAVEAMRVGAFDFLEKPFNPDRMSDLAKRASNARRLTLDNRALRRELSDGGQIMKKLIGTSPVMERLREDILDLGQADGHVLIDGETGTGKTLVAHALHAVGSRAGKKFVLVSCSALEEEALAKRLFGPMIPEDAQLPAIEEARGGTLVLEDVESLSDALQAKLLSVMNQQGTPAETRIVAISNLQEAGKTSEDVLRPDLFYRLAALRLTMPPLRQRGEDILTLFTRLSEQFAEEYGCDAPQVSAQEAAQLLQAPWPGNVRQLINIAERAVLQARRGSGTIASLLMSDHEDEGHHHHHH | soluble
MSLAQPCAIIDLETTGGNIARDRITEVGMVLIDGERVERLSWLVNPGQPIPPFIENMTGISNEMVAGAPPFSAQADELLDRLQGRLLLAHNARFDYGFLKNEFRRHGLRFQARALCTVKLSRRLYPQHFKHSLDSLIARHGIDMPERHRALADAEAVYRFIRIAEAELGEDRVAHEAAQLLSQPAELSSLPAELQQQIEEGHHHHHH | not soluble
MSLASKSIRILSVEDHPVVREGLVSIIGSQPDMVLVAQATNGSDAIAQFRTHHPDITLMDLRLPGISGTDALISIRGEFPRARVIILTTSDSHTEIDRALRAGAAAYILKSMPMNEMLAVIRSVHAGARHIPQEVASRLAENIGEESLTSRELEVLHLIRDGHRNKQIADELSISETTVNFHIKNIVGKMGANDRTHAVTIAVRRGLLQEGHHHHHH | soluble
MSLATEQIQHIAIVGCVHGKYREMYRQLSEYEKSTGKEISFVICTGDMQTLRYEADLVYLKVPPKYKQMGDFHLYYEGKEKAPYLTLFIGGNHESSNVLLHLYNGGFVCFNMYYLGVCSCININGLRIVGVSGIYKSFDEKKPYTYPPSPNDVVSLFHTRNYVIQMLSNLSQSSQIDISLSHDWPQGIVMKGNYKQLYRFQPGFKKDGASLGSPINKVILNTLKPKYWISGHMHCEYHAEEGPTHFIALGKIGYKNAISYLDLPLKQKTDLEYDKDWVCNLIMTWPAFSNKAQFPDLSYSISELLSKRTKELDKKIIELWEKYIGLKIIYDSEGHHHHHH | not soluble
MSLATILIADDDPVTRTTLSIMLEDEDHEVYEAADSAETLDLLETTEPHVVFMDMVLPDCEAGEGITRVRRAAPAVTIIAMTGQPDTARFSAMARDAGCKECLIKPFEKNRVLALTRKVLAARGHKEGHHHHHH | not soluble
MSLATVDKPLPPTDWKVVDNSKTYLKESAMRSFAFDDTLCTLAGKTGQSFIRFWVHENTIVLGTQDTRLPFIREAIEFIEQEGYRAVVRNSGGLAVCLDAGILNLSLVFPGEATFSIDEGYERMVTLVKAIFKEEQIEAGEIAGSYCPGSYDLSIDGKKFAGISQRRIRGGIAVQIYLCVQGSGSARAAFIRSVYNKAVQTSKPAFSYPDIKPEVMASLSELTNVPYSIETIIGRAKTAILESGGQLESAVLSPEEELLYETQLERMIDRHNRCLREGHHHHHH | soluble
MSLAVEIACLDLEGVLVPEIWIAFAEKTGIESLRATTRDIPDYDVLMKQRLRILDEHGLKLADIQAVISTLKPLEGAVEFVDWLRERFQVVILSDTFYEFSQPLMRQLGFPTLLCHRLITDETDRVVSYQLRQKDPKRQSVLAFKSLYYRIIAAGDSYNDTTMLGEADAGILFHAPDNVIREFPQFPAVHTFDELKKEFIKASNRELVLEGHHHHHH | soluble
MSLAYGIRLLVWGERACFTRPEMKVERVSYDVITPSAARGILEAIHWKPAICWVVDRIHVLKPIRFESIRRNEVGGKLSAASVGKAMKAGRTDGLIALADEDRQQRAATVLRDVSYVIEAHFELTARADASDSEGKHLDIFNRRARKGQYFHAPCLGVREFPASFELIEPDDVLPAVPADLRGERELGWMLHDIDFANDMTPHFFRAVMRDGVIEVPALRSEGVKAEGHHHHHH | soluble
MSLCAAHAARPLALVMRLGYETAMSQIESLFVTRLYRARLSEHGPAIDPEEMEASCYSIAEDDEAGQEWCEENGYPGYTSYASLTDLPWRFPIFADLVTSLDAHVAAFAADLEFDLDGRKLVLEDLWINILPQGGMHSSHLHPHSVISGTTYVAMPEGASALKLEDPRSGRMMAAPTRTKTARRELQPFIYMKPDVGDVLLWESWLRHEVPMNMSEEERISVSFNYRWDEGHHHHHH | soluble
MSLCGLLGILTANGNAEAFVPALERALPCMRHRGPDDAGTWHDADAAFGFNRLSIIDIAHSHQPLRWGPADEPDRYAMTFNGEIYNYVELRKELSDLGYAFNTSGDGEPIVVGFHHWGESVVEHLRGMFGIAIWDTKEKSLFLARDQFGIKPLFYATTEHGTVFSSEKKTILEMAEEMNLDLGLDKRTIEHYVDLQYVPEPDTLHAQISRLESGCTATVRPGGKLEQKRYFKPQFPVQKVVKGKEQDLFDRIAQVLEDSVEKHMRADVTVGSFLSGGIDSTAIAALAKRHNPDLLTFTTGFEREGYSEVDVAAESAAAIGAEHIVKIVSPEEYANAIPKIMWYLDDPVADPSLVPLYFVAAEARKHVKVVLSGEGADELFGGYTIYKEPLSLAPFEKIPSPLRKGLGKLSKVLPDGMKGKSLLERGSMTMEERYYGNARSFNFEQMQRVIPWAKREWDHREVTAPIYAQSRNFDPVARMQHLDLFTWMRGDILVKADKINMANSLELRVPFLDKEVFKVAETIPYDLKIANGTTKYALRRALEQIVPPHVLHRKKLGFPVPMRHWLAGDELFGWAQDTIKESGTEDIFNKQAVLDMLNEHRDGVSDHSRRLWTVLSFMVWHGIFVENRIDPQIEDRSYPVEEGHHHHHH | soluble
MSLCRRRLATWLLDGSQPPTLLLPEQEGINGIRFPIWLDENGKRVAADCPQARQEMINVWPLPLEPWLPASERRAVRLPPASTSCPPYGHDAQLPLQLTGVRDGAIIKRLPGAAEATLPLQSSGGAGERWWFLNGEPLTERGRNVTLHLTDKGDYQLLVMDDVGQIATVKFVMQEGHHHHHH | soluble
MSLDAENRAFYKIFTLKNNNLCKNSTLLEKIFKNNVEEFDFSLVKQNLEHEKNCVITSTMNQTIFFENMNSKEMGNKAYSFFNQTVLNNKGNTSLEEQISDIFDRCVYMNAEKSSSYIKLLEQDYNQVDMFVSLIFIGPYRHNLILITPVTLHLTLIPKNVKNNSFKNLFSGDMHFNMVTMTHLTEGHHHHHH | soluble
MSLDARKNNVTIKVGMIGDSSIGKTSLMVTYVQGSFDEESTQTLGVNFMEKTISIRNTEITFSIWDLGGQREFVNMLPMVCNDAVAILFMFDLSRKSTLNSIKEWYRQARGFNKTAVPILIGTKYDHFMTFPREDQEEITKQARRYAKAMKASLVFCSTSHSINVQKIFKIVLAKVFDLKCTIPEIKNVGDPILEYIDREGHHHHHH | soluble
MSLDAVRAVLIDIDGVLTVSWKPLPGAIEALHRIRDASLGVVLLTNTTSRTRASIAATLGASGFPVSAEDILTAPTATAAHLTDHCPGARCSLLNSGDIREDLVGVTLLDDTDTVPDVVIVGGAGPEFDYAALNRVFGHLQRGARLVAMHRNLYWRTDRGLDLDSGAFLLGLEHAAGTRAEITGKPAPAFFEAALTRLGAGPGQAVMVGDDIESDVLAAQRTGITGVLVKTGKYLPETHHAASARPDHVLDSVADLPALLDSVVREGHHHHHH | soluble
MSLDFDADTPVVGMVHLSPLPGAPGYDDGNRPAIRDAALRDASRLEAGGVDALLVENFGDAPFYADDVPKHVVASMAALVRDITREAEVPVGVNVLRNDAEAAVSIAAAADADFVRVNVHTGARLTDQGVVGGQAAETVRLRDRLDAAEVSMLADIDVKHSAALAERPLSEGVAELLERGHADGVIASGAGTGHATDHDHLQAVVDARDRLDADAPVFVGSGVTQETVGATLDLADGAIVGTALKQNGETTAPVDGDRVRALVDAAR | not soluble
MSLDFWLYKQAQQNGHHIAITDGQESYTYQNLYCEASLLAKRLKAYQQSRVGLYIDNSIQSIILIHACWLANIEIAMINTRLTPNEMTNQMRSIDVQLIFCTLPLELRGFQIVSLDDIEFAGRDITTNGLLDNTMGIQYDTSNETVVPKESPSNILNTSFNLDDIASIMFTSGTTGPQKAVPQTFRNHYASAIGCKESLGFDRDTNWLSVLPIYHISGLSVLLRAVIEGFTVRIVDKFNAEQILTMIKNERITHISLVPQTLNWLMQQGLHEPYNLQKILLGGAKLSATMIETALQYNLPIYNSFGMTETCSQFLTATPEMLHARPDTVGMPSANVDVKIKNPNKEGHGELMIKGANVMNGYLYPTDLTGTFENGYFNTGDIAEIDHEGYVMIYDRRKDLIISGGENIYPYQIETVAKQFPGISDAVCVGHPDDTWGQVPKLYFVSESDISKAQLIAYLSKHLAKYKVPKHFEKVDTLPYTSTGKLQRNKLYREGHHHHHH | soluble
MSLDHIIIRHAHAAVITAPLNTPFRIATGQHDQLENVFFQLKAHDGTCGYGEAAVASHITGETVEQTLANLQKAATQLAGRNGNDPVELIEEFRPLFVGNHAALAAFEMALFDLASRSRGIPFGALFSAAPGCAARPRFQSDITIVIGSLEEAETAARHYAGQGFTAFKIKVGKDHELDLQRVLAVKRIAPDSCLVLDANMGFDATGMRRFLQQLEQHGIRPDLLEQPVPKGDWDGLAAITREFAGSGMLICADESVGSLAAAELAVALKAVNAINIKFMKSGITESVRIAELACRNNIKLMLGAMMESSLAITAAAHFAATLGCFEVIDLDTTFFINGPLSRSPYLDQSGRFDLGAPGPGIGVALKLLEGHHHHHH | soluble
MSLDIAQIALHQLIKRDEQTLDMVLRDSLLPTNAAVEDMMAELHRVYSAKSKAYGLFNEQSELADALRACRKGDEDFLSFSRAATGRLRDELAKYPFAEGGIVLFCQYRYLAVEYLLISVLNSCNSMRVNEQLDISTTHYLDINHADIIARIDLTEWETNPESTRYLTFLKGRVGRKVSDFFMDFLAASEGLDTKAQNRGLLKAVDEYCDEAQLDKNERQNYRQQVHSYCTEQLQSGEEIELASLSQELPPLGEKTFQQFSADQGYELEESFPADRGTLRQLTKFAGSGGGISLNFDALLLGERIFWDPATDTLTIKGTPPNLRDQLQRRTSGGKQLEHHHHHH | not soluble
MSLDKIRYGIMSTAQIVPRFVAGLRESAQAEVRGIASRRLENAQKMAKELAIPVAYGSYEELCKDETIDIIYIPTYNQGHYSAAKLALSQGKPVLLEKPFTLNAAEAEELFAIAQEQGVFLMEAQKSVFLPITQKVKATIQEGGLGEILWVQSVTAYPNVDHIPWFYSREAGGGALHGSGSYPLQYLQYVLGKEIQEVTGTATYQQGATDSQCNLALKFAEGTLGNIFINVGLKIPSEMTICGTKGQIVIPNFWKTDCAYYTDAQGNTVKWSEQFTSEFTYEINHVNQCLQDKKLTSPVMTKELTIATVKIVESFYQEWFDNEGHHHHHH | soluble
